Legend:
human LGR7 (human) = human LGR7 (human) (UniProt Q9HBX9); assay: cell-based or functional assay
human LGR8 (human) = human LGR8 (human) (UniProt Q8WXD0); assay: cell-based or functional assay
rat GPCR135 (rat) = rat GPCR135 (rat) (UniProt Q5Y987); assay: competition with 100 pM [125I] human R3, COS-7 membranes with rat GPCR135
rat LGR7 (rat) = rat LGR7 (rat) (UniProt Q6R6I6); assay: competition with 100 pM [125I] human relaxin-2, COS-7 membranes with rat LGR7
rat LGR7 (rat), sequence (Q6R6I6 whole entry): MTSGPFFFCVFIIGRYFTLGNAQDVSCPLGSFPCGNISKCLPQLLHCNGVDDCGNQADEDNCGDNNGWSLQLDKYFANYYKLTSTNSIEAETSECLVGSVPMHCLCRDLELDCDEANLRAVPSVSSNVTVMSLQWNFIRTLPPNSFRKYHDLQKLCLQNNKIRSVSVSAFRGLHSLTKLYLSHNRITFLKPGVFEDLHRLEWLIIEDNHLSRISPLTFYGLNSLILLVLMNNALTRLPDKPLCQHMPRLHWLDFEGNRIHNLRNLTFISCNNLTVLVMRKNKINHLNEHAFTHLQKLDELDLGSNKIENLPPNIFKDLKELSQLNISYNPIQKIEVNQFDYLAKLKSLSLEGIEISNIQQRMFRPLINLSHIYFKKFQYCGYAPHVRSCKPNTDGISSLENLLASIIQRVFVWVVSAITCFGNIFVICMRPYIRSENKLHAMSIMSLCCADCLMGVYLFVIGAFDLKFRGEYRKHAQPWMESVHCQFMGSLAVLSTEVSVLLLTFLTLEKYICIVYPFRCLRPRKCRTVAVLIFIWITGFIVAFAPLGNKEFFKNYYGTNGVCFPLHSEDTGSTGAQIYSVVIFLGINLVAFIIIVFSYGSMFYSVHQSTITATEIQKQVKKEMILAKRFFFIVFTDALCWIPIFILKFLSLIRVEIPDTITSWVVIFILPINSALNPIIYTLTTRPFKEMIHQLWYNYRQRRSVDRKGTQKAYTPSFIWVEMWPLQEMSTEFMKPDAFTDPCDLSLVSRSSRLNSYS

rat GPCR135 (rat), sequence (Q5Y987 entry or part of it): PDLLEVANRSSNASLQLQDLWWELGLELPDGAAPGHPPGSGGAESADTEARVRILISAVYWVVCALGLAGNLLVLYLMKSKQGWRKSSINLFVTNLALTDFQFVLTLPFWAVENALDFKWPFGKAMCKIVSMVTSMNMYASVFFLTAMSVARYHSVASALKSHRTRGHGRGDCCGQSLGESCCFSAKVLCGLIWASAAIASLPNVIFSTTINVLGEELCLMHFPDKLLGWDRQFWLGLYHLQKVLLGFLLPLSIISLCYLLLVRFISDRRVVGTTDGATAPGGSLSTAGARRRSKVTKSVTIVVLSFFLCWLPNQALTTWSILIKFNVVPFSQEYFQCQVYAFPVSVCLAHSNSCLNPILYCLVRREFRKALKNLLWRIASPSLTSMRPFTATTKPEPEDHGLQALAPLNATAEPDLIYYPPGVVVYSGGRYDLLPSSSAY
human LGR8 (human), sequence (Q8WXD0 whole entry): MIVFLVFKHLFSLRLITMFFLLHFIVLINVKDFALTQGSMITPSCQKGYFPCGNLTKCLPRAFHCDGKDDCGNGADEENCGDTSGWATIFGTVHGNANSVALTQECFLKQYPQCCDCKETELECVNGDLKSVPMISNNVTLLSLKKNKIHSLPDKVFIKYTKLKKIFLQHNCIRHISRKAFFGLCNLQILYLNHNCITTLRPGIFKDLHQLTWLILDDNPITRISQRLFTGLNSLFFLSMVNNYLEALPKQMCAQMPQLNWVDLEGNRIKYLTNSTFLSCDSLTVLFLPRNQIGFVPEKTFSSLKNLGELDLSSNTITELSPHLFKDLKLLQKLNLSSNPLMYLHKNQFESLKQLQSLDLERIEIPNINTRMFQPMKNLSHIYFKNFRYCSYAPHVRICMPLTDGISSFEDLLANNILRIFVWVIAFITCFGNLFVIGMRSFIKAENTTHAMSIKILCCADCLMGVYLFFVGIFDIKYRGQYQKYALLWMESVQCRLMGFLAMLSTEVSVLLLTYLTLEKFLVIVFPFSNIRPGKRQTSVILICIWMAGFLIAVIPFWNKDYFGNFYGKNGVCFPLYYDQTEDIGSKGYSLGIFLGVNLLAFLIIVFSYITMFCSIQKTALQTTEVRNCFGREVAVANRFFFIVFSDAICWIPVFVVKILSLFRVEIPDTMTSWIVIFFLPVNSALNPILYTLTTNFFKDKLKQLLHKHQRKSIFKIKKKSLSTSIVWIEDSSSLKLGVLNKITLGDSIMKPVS
human LGR7 (human), sequence (Q9HBX9 whole entry): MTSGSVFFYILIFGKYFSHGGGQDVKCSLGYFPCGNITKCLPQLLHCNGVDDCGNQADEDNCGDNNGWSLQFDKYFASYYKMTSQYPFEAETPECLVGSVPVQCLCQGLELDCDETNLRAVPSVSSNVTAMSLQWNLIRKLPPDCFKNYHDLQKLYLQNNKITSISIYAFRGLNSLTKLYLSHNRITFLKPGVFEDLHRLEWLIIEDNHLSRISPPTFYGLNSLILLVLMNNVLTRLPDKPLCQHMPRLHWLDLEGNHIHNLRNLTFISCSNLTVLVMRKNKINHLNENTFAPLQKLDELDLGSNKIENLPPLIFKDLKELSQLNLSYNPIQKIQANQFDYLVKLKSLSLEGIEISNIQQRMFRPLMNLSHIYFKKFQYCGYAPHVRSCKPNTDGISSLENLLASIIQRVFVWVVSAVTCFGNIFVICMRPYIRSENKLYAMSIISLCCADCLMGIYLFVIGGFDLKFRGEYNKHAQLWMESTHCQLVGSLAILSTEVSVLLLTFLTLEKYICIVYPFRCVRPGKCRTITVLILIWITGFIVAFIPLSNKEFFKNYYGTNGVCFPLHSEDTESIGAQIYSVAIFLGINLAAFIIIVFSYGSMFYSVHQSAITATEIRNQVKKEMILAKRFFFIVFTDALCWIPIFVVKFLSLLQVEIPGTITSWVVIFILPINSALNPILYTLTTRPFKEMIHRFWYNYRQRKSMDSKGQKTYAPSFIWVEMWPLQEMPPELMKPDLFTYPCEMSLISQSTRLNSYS

Row | Substance | stimulation of β-galactosidase activity in SK-N-MC/β-gal cells, EC50 (human LGR7 (human)) | induction of β-galactosidase activity in SK-N-MC/β-gal cells, EC50 (human LGR8 (human)) | IC50 (rat GPCR135 (rat)) | IC50 (rat LGR7 (rat))
1 | porcine relaxin (from UniProt P01348 25-56; P01348 161-182) (ligand) | 0.25 nM | 1.5 nM | – | –
2 | human relaxin (R1) (from UniProt P04808 26-53; P04808 162-185) (ligand) | – | – | > 1000 nM | 0.2 nM
